Tests used:
[1] = target: T1, recombinant human HGF (R&D Systems, Catalog No. 294-HGN-025) (human, UniProt P14210 32-728); assay: cell-based or functional assay
[2] = target: T1, recombinant human HGF (R&D Systems, …); assay: SPR (BIAcore), KD at 25 C against KD at 37 C; lower end fits sh2B8-9 in Table 19
Procedure: (§1) The antibodies were captured in an individual flow cell at a flow rate of 10 μL/min. Injection time was variable for each antibody to yield approximately 20 RU of antibody captured for each cycle. […] The dissociation phase was monitored for 15 or 90 minutes, depending on concentration. The surface of mouse anti-human immunoglobulins sensor chips was then regenerated with 10 mM Glycine-HCl, pH 2.2 (BIAcore, Catalog No. BR-1003-54) injected for 3 minutes at a flow rate of 60 μL/min before another cycle was initiated. The surface of rabbit anti-mouse immunoglobulins sensor chips was regenerated with 10 mM Glycine-HCl, pH 1.7 (BIAcore, Catalog No. BR-1003-54) injected for 3 minutes at a flow rate of 60 μL/min before another cycle was initiated.

[3] = target: T1, recombinant human HGF (R&D Systems, …); assay: SPR (BIAcore), KD at 25 C against KD at 37 C; upper end fits 2B8 in Table 19
Procedure: as §1

T1 sequence (P14210 32-728 limits assumed): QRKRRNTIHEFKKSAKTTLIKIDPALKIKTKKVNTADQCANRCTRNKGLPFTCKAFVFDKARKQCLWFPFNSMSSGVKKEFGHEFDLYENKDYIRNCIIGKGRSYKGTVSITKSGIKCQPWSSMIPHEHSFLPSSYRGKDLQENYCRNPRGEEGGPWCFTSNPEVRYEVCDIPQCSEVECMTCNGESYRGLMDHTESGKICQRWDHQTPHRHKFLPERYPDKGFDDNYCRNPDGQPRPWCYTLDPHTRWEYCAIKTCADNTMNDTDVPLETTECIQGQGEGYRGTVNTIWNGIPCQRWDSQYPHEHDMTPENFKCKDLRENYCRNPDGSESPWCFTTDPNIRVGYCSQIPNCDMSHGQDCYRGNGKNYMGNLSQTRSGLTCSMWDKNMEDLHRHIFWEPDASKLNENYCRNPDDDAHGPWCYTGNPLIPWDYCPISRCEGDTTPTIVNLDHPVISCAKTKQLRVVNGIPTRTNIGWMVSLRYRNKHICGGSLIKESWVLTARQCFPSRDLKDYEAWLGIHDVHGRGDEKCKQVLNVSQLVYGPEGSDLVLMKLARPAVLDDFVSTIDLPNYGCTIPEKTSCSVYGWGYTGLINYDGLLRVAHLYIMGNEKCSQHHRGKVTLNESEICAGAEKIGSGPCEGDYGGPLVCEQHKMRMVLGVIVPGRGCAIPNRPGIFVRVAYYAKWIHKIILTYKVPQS

| HGF-stimulated c-Met phosphorylation in PC-3 cells, Average of Two Trials [1] | fold smaller KD at 37° C. than at 25° C. [2] | fold smaller KD at 37° C. than at 25° C. [3] | Binder |
| --- | --- | --- | --- |
| 0.93 nM | 1.4 to 3 fold | – | sh2B8-9 (G1m(3)) (antibody, human IgG1, kappa, superhumanized 2B8, human IgG1 G1m(3) allotype (allele 2), kappa Km(3) (allele 2), made in 293T cells) heavy: not shown light: DIQMTQSPSSLSASVGDRVTITCKASENVVSYVSWYQQKPGKAPKLLIYGASNRNTGVPSRFSGSGSGTDFTLTISSLQPEDFATYYCGQSYNYPYTFGQGTKLEIKRTVAAPSVFIFPPSDEQLKSGTASVVCLLNNFYPREAKVQWKVDNALQSGNSQESVTEQDSKDSTYSLSSTLTLSKADYEKHKVYACEVTHQGLSSPVTKSFNRGEC |
| 0.8 nM | – | – | HE2B8-1 (antibody, human IgG1, kappa, V domains shown) VH: QVQLVQPGAEVVKPGTSVKLSCKASGYTFTTYWMHWVNQAPGQGLEWIGEINPTNGHTNYNEKFKGKATLTVDKSTSTAYMELSSLRSEDTAVYYCARNYVGSIFDYWGQGTLLTVSS VL: DIVMTQSPDSMAMSVGERVTLNCKASENVVSYVSWYQQKPGQSPKLLIYGASNRNTGVPDRFSGSGSATDFTLTISSVQAEDVADYHCGQSYNYPYTFGQGTKLEIKR |
| 0.75 nM | – | – | HE2B8-4 (antibody, human IgG1, kappa, V domains shown) VH: QVQLVQPGAEVKKPGTSVKLSCKASGYTFTTYWMHWVRQAPGQGLEWIGEINPTNGHTNYNQKFQGRATLTVDKSTSTAYMELSSLRSEDTAVYYCARNYVGSIFDYWGQGTLLTVSS VL: DIVMTQSPDSLAMSLGERVTLNCKASENVVSYVSWYQQKPGQSPKLLIYGASNRESGVPDRFSGSGSATDFTLTISSVQAEDVADYHCGQSYNYPYTFGQGTKLEIKR |
| 0.79 nM | – | – | HE2B8-3 (antibody, human IgG1, kappa, V domains shown) VH: QVQLVQPGAEVKKPGTSVKLSCKASGYTFTTYWMHWVRQAPGQGLEWIGEINPTNGHTNYNQKFQGRATLTVDKSTSTAYMELSSLRSEDTAVYYCARNYVGSIFDYWGQGTLLTVSS VL: DIVMTQSPDSMAMSVGERVTLNCKASENVVSYVSWYQQKPGQSPKLLIYGASNRNTGVPDRFSGSGSATDFTLTISSVQAEDVADYHCGQSYNYPYTFGQGTKLEIKR |
| 0.88 nM | – | – | HE2B8-2 (antibody, human IgG1, kappa, V domains shown) VH: QVQLVQPGAEVVKPGTSVKLSCKASGYTFTTYWMHWVNQAPGQGLEWIGEINPTNGHTNYNEKFKGKATLTVDKSTSTAYMELSSLRSEDTAVYYCARNYVGSIFDYWGQGTLLTVSS VL: DIVMTQSPDSLAMSLGERVTLNCKASENVVSYVSWYQQKPGQSPKLLIYGASNRESGVPDRFSGSGSATDFTLTISSVQAEDVADYHCGQSYNYPYTFGQGTKLEIKR |
| 0.91 nM | – | 1.4 to 3 fold | 2B8 (antibody, mouse IgG1, kappa, also called murine 2B8; mouse 2B8) heavy: QVQLQQPGAELVKPGTSVKLSCKASGYTFTTYWMHWVNQRPGQGLEWIGEINPTNGHTNYNEKFKSKATLTVDKSSSTAYMQLSSLTSEDSAVYYCARNYVGSIFDYWGQGTTLTVSSAKTTPPSVYPLAPGSAAQTNSMVTLGCLVKGYFPEPVTVTWNSGSLSSGVHTFPAVLQSDLYTLSSSVTVPSSTWPSETVTCNVAHPASSTKVDKKIVPRDCGCKPCICTVPEVSSVFIFPPKPKDVLTITLTPKVTCVVVDISKDDPEVQFSWFVDDVEVHTAQTQPREEQFNSTFRSVSELPIMHQDWLNGKEFKCRVNSAAFPAPIEKTISKTKGRPKAPQVYTIPPPKEQMAKDKVSLTCMITDFFPEDITVEWQWNGQPAENYKNTQPIMDTDGSYFVYSKLNVQKSNWEAGNTFTCSVLHEGLHNHHTEKSLSHSPGK light: NIVMTQSPKSMSMSVGERVTLSCKASENVVSYVSWYQQKPAQSPKLLIYGASNRNTGVPDRFTGSGSATDFTLTISSVRAEDLADYHCGQSYNYPYTFGGGTRLEIKRADAAPTVSIFPPSSEQLTSGGASVVCFLNNFYPKDINVKWKIDGSERQNGVLNSWTDQDSKDSTYSMSSTLTLTKDEYERHNSYTCEATHKTSTSPIVKSFNRNEC |
